Assay results: US20110263454A1, “Methods of Identifying Functional Characteristics of Promoters, Transcription Modifying Proteins and Transcription Modulating Agents” (Salk Institute for Biological Studies, priority 2008, published 2011)

Key:
hG6PD promoter = assay: NHR-promoter luciferase screen, hG6PD promoter; assay type: cell-based, human; conditions: for Luc. act., normalized to lacZ / Normalized Luc. act., normalized to control: G6PD promoter reporter, co-transfected HR, without or with its ligand; for Normalized Luc. act., normalized to control: relative to control; for luciferase activity normalized to lacZ activity and to a control, hG6PD: hG6PD promoter-luciferase, CV-1 cells, NHR +/- ligand, control = 1.00
Description: (§1) The use, feasibility, and reproducibility of the functional NHR-promoter screen in a 48-well format have been tested validated. Briefly, there were co-expressed 50 ng of each NHR/NHR homodimer or NHR/RXR heterodimer with 100 ng promoter/luciferase construct and 50 ng of LacZ (as a control for transfection efficiency) in CV-1 cells using Fugene HD (Roche) as a transfection reagent (alternatively or additionally, a CMV-YFP construct can be used as a transfection control). Each of the nuclear hormone receptors that were used in these experiments was cloned into a pcDNA3.1 vector and comprised a C-terminally linked V5H6 tag. Twenty-four hours after transfection, appropriate ligands were added, where applicable, (see Table 5 for various ligands and concentrations and after 48 hrs, samples were assayed for luciferase and LacZ activity. To measure for luciferase activity 15 ul of sample was added to 30 ul of luciferase buffer (20 mM tricine, 1.07 mM MgCarbonate, 2.67 mM MgSulfate, 0.1 mM Naz-EDTA, 5 mM DTT, 5 mM ATP, 0.15 mg/ml CoA, 0.5 mM Luciferin), mixed briefly, and run in a Perkin Elmer Victor 5 luminometer. Thus, the functional NHR-promoter screen was used to observe the transcriptional activity of 29 promoters from various physiological pathways including inflammation, lipid and sugar metabolism, cholesterol transport, xenobiotic metabolism, and circadian rhythm.
(§2) The promoters that facilitate transcription of the indicated gene products that were tested using the protocols described herein are listed in the first row of the table. The nuclear hormone receptors and, where applicable, ligands that were assayed for their transcriptional effects on the promoters are listed in the first column of the table. The data represent the luciferase activity of each sample normalized to both the lacZ activity of that sample and to a control, e.g., no NHR or ligand, as customary in the art. As described previously, these normalizations allow the transcriptional activity of each reporter cell to be compared to other samples.
(§3) Tables 7-40 show the transcriptional effects of the hormone receptors, and, where applicable, ligands (orphan receptors are screened without ligand), on each individual promoter. […] The control data of each table are shown in their last rows.

mADRP promoter = assay: NHR-promoter luciferase screen, mADRP promoter; assay type: cell-based, mouse; conditions: for Luc. act., normalized to lacZ / Normalized Luc. act., normalized to control: ADRP promoter, HR/ligand component; for mADRP promoter reporter activity: transcription factor +/- ligand, control = 1.00
Description: as §1, §2, §3

hIFNg promoter = assay: NHR-promoter luciferase screen, hIFNg promoter; assay type: cell-based, human; conditions: for Luc. act., normalized to lacZ / Normalized Luc. act., normalized to control: IFNg promoter, HR component without or with ligand; for hIFNg promoter reporter activity: transcription factor +/- ligand, control = 1.00
Description: as §1, §2, §3

B1: PPARd: Peroxisome proliferator activated receptor δ (NR1C2), cDNA driver (protein, UniProt Q03181 1-441, looked up)
Peroxisome …: MEQPQEEAPEVREEEEKEEVAEAEGAPELNGGPQHALPSSSYTDLSRSSSPPSLLDQLQMGCDGASCGSLNMECRVCGDKASGFHYGVHACEGCKGFFRRTIRMKLEYEKCERSCKIQKKNRNKCQYCRFQKCLALGMSHNAIRFGRMPEAEKRKLVAGLTANEGSQYNPQVADLKAFSKHIYNAYLKNFNMTKKKARSILTGKASHTAPFVIHDIETLWQAEKGLVWKQLVNGLPPYKEISVHVFYRCQCTTVETVRELTEFAKSIPSFSSLFLNDQVTLLKYGVHEAIFAMLASIVNKDGLLVANGSGFVTREFLRSLRKPFSDIIEPKFEFAVKFNALELDDSDLALFIAAIILCGDRPGLMNVPRVEAIQDTILRALEFHLQANHPDAQYLFPKLLQKMADLRQLVTEHAQMMQRIKKTETETSLHPLLQEIYKDMY
hG6PD promoter
  Luc. act., normalized to lacZ: 48.7
  Normalized Luc. act., normalized to control: 1.3
  luciferase activity normalized to lacZ activity and to a control, hG6PD: 1.30
mADRP promoter
  Luc. act., normalized to lacZ: 694.0
  Normalized Luc. act., normalized to control: 1.4
  mADRP promoter reporter activity: 1.39
hIFNg promoter
  Luc. act., normalized to lacZ: 19.72
  Normalized Luc. act., normalized to control: 1.2
  hIFNg promoter reporter activity: 1.24

B2: FXR: Farnesoid X Receptor (NR1H4), cDNA driver (protein, UniProt Q96RI1 1-486, looked up)
Bile acid receptor: MVMQFQGLENPIQISPHCSCTPSGFFMEMMSMKPAKGVLTEQVAGPLGQNLEVEPYSQYSNVQFPQVQPQISSSSYYSNLGFYPQQPEEWYSPGIYELRRMPAETLYQGETEVAEMPVTKKPRMGASAGRIKGDELCVVCGDRASGYHYNALTCEGCKGFFRRSITKNAVYKCKNGGNCVMDMYMRRKCQECRLRKCKEMGMLAECMYTGLLTEIQCKSKRLRKNVKQHADQTVNEDSEGRDLRQVTSTTKSCREKTELTPDQQTLLHFIMDSYNKQRMPQEITNKILKEEFSAEENFLILTEMATNHVQVLVEFTKKLPGFQTLDHEDQIALLKGSAVEAMFLRSAEIFNKKLPSGHSDLLEERIRNSGISDEYITPMFSFYKSIGELKMTQEEYALLTAIVILSPDRQYIKDREAVEKLQEPLLDVLQKLCKIHQPENPQHFACLLGRLTELRTFNHHHAEMLMSWRVNDHKFTPLLCEIWDVQ
hG6PD promoter
  Luc. act., normalized to lacZ: 42.6
  Normalized Luc. act., normalized to control: 1.1
  luciferase activity normalized to lacZ activity and to a control, hG6PD: 1.14
mADRP promoter
  Luc. act., normalized to lacZ: 658.3
  Normalized Luc. act., normalized to control: 1.3
  mADRP promoter reporter activity: 1.32
hIFNg promoter
  Luc. act., normalized to lacZ: 17.12
  Normalized Luc. act., normalized to control: 1.1
  hIFNg promoter reporter activity: 1.08

B3: PXR: Pregnane X Receptor (NR1I2), cDNA driver (protein, UniProt O75469 1-434, looked up)
Nuclear receptor subfamily 1 …: MEVRPKESWNHADFVHCEDTESVPGKPSVNADEEVGGPQICRVCGDKATGYHFNVMTCEGCKGFFRRAMKRNARLRCPFRKGACEITRKTRRQCQACRLRKCLESGMKKEMIMSDEAVEERRALIKRKKSERTGTQPLGVQGLTEEQRMMIRELMDAQMKTFDTTFSHFKNFRLPGVLSSGCELPESLQAPSREEAAKWSQVRKDLCSLKVSLQLRGEDGSVWNYKPPADSGGKEIFSLLPHMADMSTYMFKGIISFAKVISYFRDLPIEDQISLLKGAAFELCQLRFNTVFNAETGTWECGRLSYCLEDTAGGFQQLLLEPMLKFHYMLKKLQLHEEEYVLMQAISLFSPDRPGVLQHRVVDQLQEQFAITLKSYIECNRPQPAHRFLFLKIMAMLTELRSINAQHTQRLLRIQDIHPFATPLMQELFGITGS
hG6PD promoter
  Luc. act., normalized to lacZ: 42.5
  Normalized Luc. act., normalized to control: 1.1
  luciferase activity normalized to lacZ activity and to a control, hG6PD: 1.14
mADRP promoter
  Luc. act., normalized to lacZ: 1021.2
  Normalized Luc. act., normalized to control: 2.1
  mADRP promoter reporter activity: 2.05
hIFNg promoter
  Luc. act., normalized to lacZ: 23.93
  Normalized Luc. act., normalized to control: 1.5
  hIFNg promoter reporter activity: 1.50

B4: CAR: Constitutive Androstane Receptor (NR1I3), cDNA driver (protein, UniProt Q14994 1-352, looked up)
Nuclear receptor subfamily 1 …: MASREDELRNCVVCGDQATGYHFNALTCEGCKGFFRRTVSKSIGPTCPFAGSCEVSKTQRRHCPACRLQKCLDAGMRKDMILSAEALALRRAKQAQRRAQQTPVQLSKEQEELIRTLLGAHTRHMGTMFEQFVQFRPPAHLFIHHQPLPTLAPVLPLVTHFADINTFMVLQVIKFTKDLPVFRSLPIEDQISLLKGAAVEICHIVLNTTFCLQTQNFLCGPLRYTIEDGARVSPTVGFQVEFLELLFHFHGTLRKLQLQEPEYVLLAAMALFSPDRPGVTQRDEIDQLQEEMALTLQSYIKGQQRRPRDRFLYAKLLGLLAELRSINEAYGYQIQHIQGLSAMMPLLQEICS
hG6PD promoter
  Luc. act., normalized to lacZ: 46.4
  Normalized Luc. act., normalized to control: 1.2
  luciferase activity normalized to lacZ activity and to a control, hG6PD: 1.24
mADRP promoter
  Luc. act., normalized to lacZ: 623.0
  Normalized Luc. act., normalized to control: 1.3
  mADRP promoter reporter activity: 1.25
hIFNg promoter
  Luc. act., normalized to lacZ: 19.0
  Normalized Luc. act., normalized to control: 1.2
  hIFNg promoter reporter activity: 1.19

B5: RXRb: Retinoic X Receptor β (NR2B2), cDNA driver (protein, UniProt P28702 1-533, looked up)
Retinoic acid receptor …: MSWAARPPFLPQRHAAGQCGPVGVRKEMHCGVASRWRRRRPWLDPAAAAAAAVAGGEQQTPEPEPGEAGRDGMGDSGRDSRSPDSSSPNPLPQGVPPPSPPGPPLPPSTAPSLGGSGAPPPPPMPPPPLGSPFPVISSSMGSPGLPPPAPPGFSGPVSSPQINSTVSLPGGGSGPPEDVKPPVLGVRGLHCPPPPGGPGAGKRLCAICGDRSSGKHYGVYSCEGCKGFFKRTIRKDLTYSCRDNKDCTVDKRQRNRCQYCRYQKCLATGMKREAVQEERQRGKDKDGDGEGAGGAPEEMPVDRILEAELAVEQKSDQGVEGPGGTGGSGSSPNDPVTNICQAADKQLFTLVEWAKRIPHFSSLPLDDQVILLRAGWNELLIASFSHRSIDVRDGILLATGLHVHRNSAHSAGVGAIFDRVLTELVSKMRDMRMDKTELGCLRAIILFNPDAKGLSNPSEVEVLREKVYASLETYCKQKYPEQQGRFAKLLLRLPALRSIGLKCLEHLFFFKLIGDTPIDTFLMEMLEAPHQLA
hG6PD promoter
  Luc. act., normalized to lacZ: 23.1
  Normalized Luc. act., normalized to control: 0.6
  luciferase activity normalized to lacZ activity and to a control, hG6PD: 0.62
mADRP promoter
  Luc. act., normalized to lacZ: 676.1
  Normalized Luc. act., normalized to control: 1.4
  mADRP promoter reporter activity: 1.36
hIFNg promoter
  Luc. act., normalized to lacZ: 20.0
  Normalized Luc. act., normalized to control: 1.3
  hIFNg promoter reporter activity: 1.26

B6: RXRg: Retinoic X Receptor γ (NR2B3), cDNA driver (protein, UniProt P48443 1-463, looked up)
Retinoic acid receptor …: MYGNYSHFMKFPAGYGGSPGHTGSTSMSPSAALSTGKPMDSHPSYTDTPVSAPRTLSAVGTPLNALGSPYRVITSAMGPPSGALAAPPGINLVAPPSSQLNVVNSVSSSEDIKPLPGLPGIGNMNYPSTSPGSLVKHICAICGDRSSGKHYGVYSCEGCKGFFKRTIRKDLIYTCRDNKDCLIDKRQRNRCQYCRYQKCLVMGMKREAVQEERQRSRERAESEAECATSGHEDMPVERILEAELAVEPKTESYGDMNMENSTNDPVTNICHAADKQLFTLVEWAKRIPHFSDLTLEDQVILLRAGWNELLIASFSHRSVSVQDGILLATGLHVHRSSAHSAGVGSIFDRVLTELVSKMKDMQMDKSELGCLRAIVLFNPDAKGLSNPSEVETLREKVYATLEAYTKQKYPEQPGRFAKLLLRLPALRSIGLKCLEHLFFFKLIGDTPIDTFLMEMLETPLQIT
hG6PD promoter
  Luc. act., normalized to lacZ: 43.7
  Normalized Luc. act., normalized to control: 1.2
  luciferase activity normalized to lacZ activity and to a control, hG6PD: 1.17
mADRP promoter
  Luc. act., normalized to lacZ: 665.8
  Normalized Luc. act., normalized to control: 1.3
  mADRP promoter reporter activity: 1.34
hIFNg promoter
  Luc. act., normalized to lacZ: 15.2
  Normalized Luc. act., normalized to control: 1.0
  hIFNg promoter reporter activity: 0.96

B7: RORb: RAR-related Orphan Receptor β (NR1F2), cDNA driver (protein, UniProt Q92753 1-470, looked up)
Nuclear receptor ROR-beta: MCENQLKTKADATAQIEVIPCKICGDKSSGIHYGVITCEGCKGFFRRSQQNNASYSCPRQRNCLIDRTNRNRCQHCRLQKCLALGMSRDAVKFGRMSKKQRDSLYAEVQKHQQRLQEQRQQQSGEAEALARVYSSSISNGLSNLNNETSGTYANGHVIDLPKSEGYYNVDSGQPSPDQSGLDMTGIKQIKQEPIYDLTSVPNLFTYSSFNNGQLAPGITMTEIDRIAQNIIKSHLETCQYTMEELHQLAWQTHTYEEIKAYQSKSREALWQQCAIQITHAIQYVVEFAKRITGFMELCQNDQILLLKSGCLEVVLVRMCRAFNPLNNTVLFEGKYGGMQMFKALGSDDLVNEAFDFAKNLCSLQLTEEEIALFSSAVLISPDRAWLIEPRKVQKLQEKIYFALQHVIQKNHLDDETLAKLIAKIPTITAVCNLHGEKLQVFKQSHPEIVNTLFPPLYKELFNPDCATGCK
hG6PD promoter
  Luc. act., normalized to lacZ: 51.1
  Normalized Luc. act., normalized to control: 1.4
  luciferase activity normalized to lacZ activity and to a control, hG6PD: 1.37
mADRP promoter
  Luc. act., normalized to lacZ: 685.3
  Normalized Luc. act., normalized to control: 1.4
  mADRP promoter reporter activity: 1.38
hIFNg promoter
  Luc. act., normalized to lacZ: 22.2
  Normalized Luc. act., normalized to control: 1.4
  hIFNg promoter reporter activity: 1.40
